The test system of the data set is Escherichia coli TOP10. The data set can be described thus: shrunken log2 fold change of peptide-encoding DNA abundance (4.5 h post-induction vs induction); higher = less antimicrobial activity (less host growth inhibition). As to conditions: time post-induction: 4.5 h; library: site-saturation at positions 5, 18, 19, 20.
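Further: peptides expressed intracellularly from a pBAD plasmid library in pooled LB shake-flask culture, induced with 0.3% L-arabinose, DNA abundance read by NGS, three biological replicates, DESeq2 with apeglm shrinkage.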

For RRIRQRPPRLPRPRPRPGNSPRP, the “shrunken log2 fold change” value was -0.391.
Turning to RRIRERPPRLPRPRPRPGHRPRP, the “shrunken log2 fold change” value is -0.117.
For RRIRERPPRLPRPRPRPNTVPRP, the “shrunken log2 fold change” value was -0.595.
The figure for RRIRARPPRLPRPRPRPFHYPRP is -0.371.
The figure for RRIRQRPPRLPRPRPRPITAPRP is -0.503; for RRIRYRPPRLPRPRPRPNCFPRP it is -0.43.
As for RRIRFRPPRLPRPRPRPQATPRP, the “shrunken log2 fold change” value is -0.248.
With RRIRPRPPRLPRPRPRPVQSPRP, the “shrunken log2 fold change” value was found to be 0.131.
The figure for RRIRSRPPRLPRPRPRPILYPRP is -0.481; for RRIRTRPPRLPRPRPRPNWFPRP it is -0.157; for RRIRGRPPRLPRPRPRPYPNPRP it is -0.529.
In the case of RRIRPRPPRLPRPRPRPNVMPRP, the “shrunken log2 fold change” value is -0.341.
Regarding RRIRFRPPRLPRPRPRPNQYPRP, the “shrunken log2 fold change” value is -1.01.
Consider RRIRYRPPRLPRPRPRPLTDPRP, for which the “shrunken log2 fold change” value was -0.134.
For RRIRGRPPRLPRPRPRPLPNPRP, the “shrunken log2 fold change” value was 0.781.
The value for RRIRIRPPRLPRPRPRPQIEPRP was -0.0116; that for RRIRIRPPRLPRPRPRPFREPRP was -0.0279.
As to RRIRARPPRLPRPRPRPQPDPRP, the “shrunken log2 fold change” value was 0.254.
As for RRIRRRPPRLPRPRPRPNGVPRP, the “shrunken log2 fold change” value worked out at 0.00234.
Take RRIRLRPPRLPRPRPRPSREPRP: the “shrunken log2 fold change” value was -0.104.
On to RRIRWRPPRLPRPRPRPEDDPRP, for which the “shrunken log2 fold change” value came to 1.19.
For RRIRQRPPRLPRPRPRPDKNPRP, the “shrunken log2 fold change” value is -0.635.
Consider RRIRYRPPRLPRPRPRPDYYPRP, for which the “shrunken log2 fold change” value is -0.00141.
On to RRIRPRPPRLPRPRPRPRAFPRP, for which the “shrunken log2 fold change” value was 0.32.
The value for RRIRKRPPRLPRPRPRPSLMPRP was 0.256.
For the sequence RRIRYRPPRLPRPRPRPMLPPRP, the “shrunken log2 fold change” value was -0.0473.
As to RRIRMRPPRLPRPRPRPTWWPRP, the “shrunken log2 fold change” value is 0.596.
On to RRIRQRPPRLPRPRPRPGINPRP, for which the “shrunken log2 fold change” value is -0.296.
RRIRHRPPRLPRPRPRPGCGPRP: the “shrunken log2 fold change” value came out at 0.417.
In the case of RRIRMRPPRLPRPRPRPHFTPRP, the “shrunken log2 fold change” value is -0.173.
The value for RRIRARPPRLPRPRPRPESNPRP was 0.553; that for RRIRTRPPRLPRPRPRPMFYPRP was -0.359; that for RRIRCRPPRLPRPRPRPELKPRP was 0.0478.
Regarding RRIRKRPPRLPRPRPRPRAMPRP, the “shrunken log2 fold change” value was -0.107.
As for RRIRRRPPRLPRPRPRPFCTPRP, the “shrunken log2 fold change” value was -0.13.
Regarding RRIRYRPPRLPRPRPRPIAHPRP, the “shrunken log2 fold change” value is -0.901.
Take RRIRVRPPRLPRPRPRPPFHPRP: the “shrunken log2 fold change” value worked out at 0.0102.
Regarding RRIRVRPPRLPRPRPRPEMMPRP, the “shrunken log2 fold change” value was determined as 0.0629.
In the case of RRIRYRPPRLPRPRPRPFMRPRP, the “shrunken log2 fold change” value is -0.499.
RRIRMRPPRLPRPRPRPQNCPRP: the “shrunken log2 fold change” value came to 0.0712.
Consider RRIRFRPPRLPRPRPRPLFTPRP, for which the “shrunken log2 fold change” value is -0.239.
The figure for RRIRKRPPRLPRPRPRPARHPRP is 1.9; for RRIRSRPPRLPRPRPRPIWHPRP it is -0.271; for RRIRCRPPRLPRPRPRPARKPRP it is 0.21.
The value for RRIRIRPPRLPRPRPRPENTPRP was -0.397; that for RRIRSRPPRLPRPRPRPCEMPRP was 0.0253.
As to RRIRRRPPRLPRPRPRPGKCPRP, the “shrunken log2 fold change” value was -0.283.
Turning to RRIRQRPPRLPRPRPRPTHMPRP, the “shrunken log2 fold change” value is 0.0516.
Turning to RRIRPRPPRLPRPRPRPKCCPRP, the “shrunken log2 fold change” value worked out at 0.228.
RRIRARPPRLPRPRPRPVPMPRP: the “shrunken log2 fold change” value stood at 0.404.
On to RRIRFRPPRLPRPRPRPTELPRP, for which the “shrunken log2 fold change” value is -0.161.
For the sequence RRIRKRPPRLPRPRPRPSPNPRP, the “shrunken log2 fold change” value was found to be 1.52.
As for RRIRQRPPRLPRPRPRPLPFPRP, the “shrunken log2 fold change” value was -0.782.
As for RRIRCRPPRLPRPRPRPHDKPRP, the “shrunken log2 fold change” value was -0.363.
As for RRIRLRPPRLPRPRPRPPFSPRP, the “shrunken log2 fold change” value was -0.25.
The figure for RRIRGRPPRLPRPRPRPFQYPRP is 0.105.
Turning to RRIRDRPPRLPRPRPRPDVKPRP, the “shrunken log2 fold change” value was -0.00748.
Consider RRIRYRPPRLPRPRPRPQPVPRP, for which the “shrunken log2 fold change” value was -0.258.
Consider RRIRYRPPRLPRPRPRPAGAPRP, for which the “shrunken log2 fold change” value stood at 0.421.
Turning to RRIRHRPPRLPRPRPRPDCAPRP, the “shrunken log2 fold change” value turned out to be 0.196.
For the sequence RRIRYRPPRLPRPRPRPAPIPRP, the “shrunken log2 fold change” value was found to be 0.226.
RRIRGRPPRLPRPRPRPLTSPRP: the “shrunken log2 fold change” value came out at 0.167.
With RRIRGRPPRLPRPRPRPEALPRP, the “shrunken log2 fold change” value turned out to be 1.33.
In the case of RRIRVRPPRLPRPRPRPQGYPRP, the “shrunken log2 fold change” value is 0.0811.
The figure for RRIRTRPPRLPRPRPRPHPWPRP is -0.0609; for RRIRRRPPRLPRPRPRPIWHPRP it is 0.176; for RRIRRRPPRLPRPRPRPILRPRP it is 0.691.
For the sequence RRIRRRPPRLPRPRPRPNHTPRP, the “shrunken log2 fold change” value is -0.306.
On to RRIRTRPPRLPRPRPRPQEPPRP, for which the “shrunken log2 fold change” value is -0.0583.
In the case of RRIRNRPPRLPRPRPRPCNKPRP, the “shrunken log2 fold change” value was -0.334.
With RRIRVRPPRLPRPRPRPPTNPRP, the “shrunken log2 fold change” value worked out at 1.14.
For RRIRFRPPRLPRPRPRPDCMPRP, the “shrunken log2 fold change” value was -0.286.
For RRIRLRPPRLPRPRPRPLGDPRP, the “shrunken log2 fold change” value was determined as 0.015.
Take RRIRYRPPRLPRPRPRPKFRPRP: the “shrunken log2 fold change” value is -0.102.
The value for RRIRCRPPRLPRPRPRPIWCPRP was 2.08e-06; that for RRIRVRPPRLPRPRPRPINLPRP was -0.304.
With RRIRTRPPRLPRPRPRPMNFPRP, the “shrunken log2 fold change” value is -0.638.
The figure for RRIRMRPPRLPRPRPRPQYKPRP is -0.0699; for RRIRYRPPRLPRPRPRPCMSPRP it is -0.282; for RRIRHRPPRLPRPRPRPKYVPRP it is -0.0624.
Take RRIRCRPPRLPRPRPRPVGSPRP: the “shrunken log2 fold change” value was determined as 0.0443.
For the sequence RRIRARPPRLPRPRPRPYGMPRP, the “shrunken log2 fold change” value was -0.684.
Take RRIRERPPRLPRPRPRPAEKPRP: the “shrunken log2 fold change” value was -0.0431.
Take RRIRMRPPRLPRPRPRPEVEPRP: the “shrunken log2 fold change” value is -0.0272.
With RRIRQRPPRLPRPRPRPSYRPRP, the “shrunken log2 fold change” value is -0.0524.
Consider RRIRRRPPRLPRPRPRPWPMPRP, for which the “shrunken log2 fold change” value was -0.157.
RRIRYRPPRLPRPRPRPSVLPRP: the “shrunken log2 fold change” value is -0.444.
The value for RRIRARPPRLPRPRPRPTCAPRP was 0.863.
The value for RRIRSRPPRLPRPRPRPRWEPRP was 0.275; that for RRIRGRPPRLPRPRPRPPDTPRP was 1.
Take RRIRMRPPRLPRPRPRPMAHPRP: the “shrunken log2 fold change” value was -0.0858.
With RRIRDRPPRLPRPRPRPCCIPRP, the “shrunken log2 fold change” value was 0.168.
For RRIRLRPPRLPRPRPRPVPLPRP, the “shrunken log2 fold change” value was -0.174.
Regarding RRIRSRPPRLPRPRPRPWVGPRP, the “shrunken log2 fold change” value was -0.452.
On to RRIRTRPPRLPRPRPRPKVQPRP, for which the “shrunken log2 fold change” value is -0.0279.
For the sequence RRIRVRPPRLPRPRPRPKISPRP, the “shrunken log2 fold change” value was -0.234.
Take RRIRDRPPRLPRPRPRPGIRPRP: the “shrunken log2 fold change” value was -0.174.
The value for RRIRFRPPRLPRPRPRPWLAPRP was 2.73.
For the sequence RRIRARPPRLPRPRPRPTYDPRP, the “shrunken log2 fold change” value was -0.0892.
Regarding RRIRQRPPRLPRPRPRPPRIPRP, the “shrunken log2 fold change” value came to 0.0686.
Turning to RRIRLRPPRLPRPRPRPIATPRP, the “shrunken log2 fold change” value was 0.173.
As to RRIRFRPPRLPRPRPRPSIQPRP, the “shrunken log2 fold change” value was -0.0528.
Turning to RRIRCRPPRLPRPRPRPYYYPRP, the “shrunken log2 fold change” value is -0.346.
As to RRIRFRPPRLPRPRPRPTSPPRP, the “shrunken log2 fold change” value stood at 0.194.
Consider RRIRGRPPRLPRPRPRPDEGPRP, for which the “shrunken log2 fold change” value was -0.001.
The figure for RRIRKRPPRLPRPRPRPCWRPRP is 0.183; for RRIRKRPPRLPRPRPRPFWYPRP it is 0.0709; for RRIRKRPPRLPRPRPRPFRAPRP it is 0.201.
The figure for RRIRVRPPRLPRPRPRPHRIPRP is -0.0697; for RRIRCRPPRLPRPRPRPEQTPRP it is 0.0662; for RRIRWRPPRLPRPRPRPWVGPRP it is 0.207.
Consider RRIRMRPPRLPRPRPRPPPCPRP, for which the “shrunken log2 fold change” value stood at 1.73.
Turning to RRIRIRPPRLPRPRPRPLGSPRP, the “shrunken log2 fold change” value is -0.41.
The figure for RRIRVRPPRLPRPRPRPVWFPRP is -0.0288.
Turning to RRIRQRPPRLPRPRPRPVYWPRP, the “shrunken log2 fold change” value was 0.0694.
The figure for RRIRNRPPRLPRPRPRPGNNPRP is -0.492.
With RRIRVRPPRLPRPRPRPLKWPRP, the “shrunken log2 fold change” value is -0.235.
Turning to RRIRFRPPRLPRPRPRPSMNPRP, the “shrunken log2 fold change” value is 0.274.
In the case of RRIRHRPPRLPRPRPRPTETPRP, the “shrunken log2 fold change” value came out at 0.146.
RRIRGRPPRLPRPRPRPVLHPRP: the “shrunken log2 fold change” value is -0.0969.
The value for RRIRSRPPRLPRPRPRPKFGPRP was -0.15.
With RRIRYRPPRLPRPRPRPLAVPRP, the “shrunken log2 fold change” value is -0.0867.
Consider RRIRMRPPRLPRPRPRPVYCPRP, for which the “shrunken log2 fold change” value was found to be 0.00982.
On to RRIRQRPPRLPRPRPRPLGGPRP, for which the “shrunken log2 fold change” value was -0.12.
In the case of RRIRGRPPRLPRPRPRPITCPRP, the “shrunken log2 fold change” value is -0.00623.

These data come from the supplement of paper PMC9112550, “Optimization of the antimicrobial peptide Bac7 by deep mutational scanning” (BMC Biology, 2022).
